Data set [1] has as its target TDP-43 NTD NTD (Homo sapiens) (UniProt Q13148). In words: AUC. Particulars: cited from earlier work.
Data set [2] concerns the molecule itself. Nature of the data set: SEC; 0.5 mg/mL (45 µM) NTD loaded, 0.0% SB3-10, Superdex 200 Increase 10/300 GL, 5 mM sodium phosphate, 50 mM NaCl, 1 mM DTT, pH 7.4, 4 °C; calibration with folded standards. In general terms: Size exclusion chromatography separates by hydrodynamic size, large species first.

On to TDP-43 NTD NTD (from UniProt Q13148), for which the Kd (in general, a measure of binding affinity in units of concentration) in data set [1] was 40 µM.

B1: N-terminal domain (NTD) of TAR DNA-binding protein 43 (TDP-43) (domain or fragment, UniProt Q13148 1-77, looked up)
chain: MSEYIRVTEDENDEPIEIPSEDDGTVLLSTVTAQFPGACGLRYRNPVSQCMRGVRLVEGILHAPDAGWGNLVYVVNY
notes: whole protein has 414 residues; also called TDP-43 NTD; native NTD; source: purified as previously described [24]
As for B1, in data set [2], the stoichiometry N – broadly, a count of units in the complex or per binding partner – was approximately 2.

These data come from article PMC9268139, “Conversion of the Native N-Terminal Domain of TDP-43 into a Monomeric Alternative Fold with Lower Aggregation Propensity” (Molecules, 2022).
